PMC8034648, “Oligomeric complexes formed by Redβ single strand annealing protein in its different DNA bound states”

Assays:
[1] = molecular target: T1, Redβ single strand annealing protein (bacteriophage λ, UniProt P03698); test: SEC-MALS; PBS; 653 kDa, n=21.1; EMSA: 10 uM Redβ, 50 uM nt DNA, 37 C, in PBS, or 20 mM Tris-HCl pH 7.5/10 mM NaCl/10 mM MgCl2, or 50 mM ammonium acetate pH 7.0; SEC-MALS: PBS, complexes formed; settings: protein: recombinant; tags: N-terminal GSH left after thrombin removal of 6xHis; chain copies: 11
T1 sequence: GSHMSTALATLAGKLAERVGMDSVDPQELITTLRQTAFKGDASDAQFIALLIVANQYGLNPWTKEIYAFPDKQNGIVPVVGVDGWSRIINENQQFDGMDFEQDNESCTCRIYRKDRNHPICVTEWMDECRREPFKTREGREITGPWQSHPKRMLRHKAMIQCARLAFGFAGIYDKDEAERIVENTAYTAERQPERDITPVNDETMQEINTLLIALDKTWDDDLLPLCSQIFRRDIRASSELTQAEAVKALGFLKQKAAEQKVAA

[2] = molecular target: T1, Redβ single strand annealing protein; test: SEC-MALS; strands added sequentially, PBS; 591 kDa, n=18.2; EMSA: 10 uM Redβ, 50 uM nt DNA, 37 C, in PBS, or 20 mM Tris-HCl pH 7.5/10 mM NaCl/10 mM MgCl2, or 50 mM ammonium acetate pH 7.0; SEC-MALS: PBS, complexes formed; settings: protein: recombinant; tags: N-terminal GSH left after thrombin removal of 6xHis; chain copies: 11; blunt
[3] = molecular target: T1, Redβ single strand annealing protein; test: native MS; strands added sequentially, 1 uM Redβ; 22 subunits, one copy of each strand; EMSA: 10 uM Redβ, 50 uM nt DNA, 37 C, in PBS, or 20 mM Tris-HCl pH 7.5/10 mM NaCl/10 mM MgCl2, or 50 mM ammonium acetate pH 7.0; SEC-MALS: PBS, complexes formed; settings: protein: recombinant; tags: N-terminal GSH left after thrombin removal of 6xHis; chain copies: 11; 3' overhang 4 nt on strand 2
[4] = molecular target: T1, Redβ single strand annealing protein; test: EMSA; strands added sequentially, either order; EMSA: 10 uM Redβ, 50 uM nt DNA, 37 C, in PBS, or 20 mM Tris-HCl pH 7.5/10 mM NaCl/10 mM MgCl2, or 50 mM ammonium acetate pH 7.0; SEC-MALS: PBS, complexes formed; settings: protein: recombinant; tags: N-terminal GSH left after thrombin removal of 6xHis; chain copies: 11; label: 5'-Cy5 on strand 1, 5'-Cy3 on strand 2; 5' overhangs 1 nt (49 bp)
[5] = molecular target: T1, Redβ single strand annealing protein; test: SEC-MALS; strands added sequentially, PBS; 358 kDa, n=11.3; EMSA: 10 uM Redβ, 50 uM nt DNA, 37 C, in PBS, or 20 mM Tris-HCl pH 7.5/10 mM NaCl/10 mM MgCl2, or 50 mM ammonium acetate pH 7.0; SEC-MALS: PBS, complexes formed; settings: protein: recombinant; tags: N-terminal GSH left after thrombin removal of 6xHis; chain copies: 11; blunt

B1: 83- (ssDNA)
DNA: TTGCATATTTAAAACATGTTGAGCTACAGCACCAGATTCAGCAATTAAGCTCTAAGCCATCCGCAAAAATGACCTCTTATCAA
**Q.** Does B1 bind [1]?
**A.** Result: binds

B2: 83-:83+ (dsDNA)
DNA 1: TTGCATATTTAAAACATGTTGAGCTACAGCACCAGATTCAGCAATTAAGCTCTAAGCCATCCGCAAAAATGACCTCTTATCAA
DNA 2: TTGATAAGAGGTCATTTTTGCGGATGGCTTAGAGCTTAATTGCTGAATCTGGTGCTGTAGCTCAACATGTTTTAAATATGCAA
**Q.** Does B2 bind [2]?
**A.** Result: binds

B3: 83-:87+ (dsDNA)
DNA 1: TTGCATATTTAAAACATGTTGAGCTACAGCACCAGATTCAGCAATTAAGCTCTAAGCCATCCGCAAAAATGACCTCTTATCAA
DNA 2: TTGATAAGAGGTCATTTTTGCGGATGGCTTAGAGCTTAATTGCTGAATCTGGTGCTGTAGCTCAACATGTTTTAAATATGCAATGAC
**Q.** Does B3 bind [3]?
**A.** Result: binds

B4: Cy5 50mer:Cy3 50mer (annealed sequentially or pre-formed) (dsDNA)
DNA 1: CCATCCGCAAAAATCGAGCTATGCAGGGCGATTCTGCTCTAAGCCATCCG
DNA 2: GCGGATGGCTTAGAGCAGAATCGCCCTGCATAGCTCGATTTTTGCGGATG
**Q.** Does B4 bind [4]?
**A.** Result: binds

B5: dT38:dA38 (dsDNA)
DNA 1: TTTTTTTTTTTTTTTTTTTTTTTTTTTTTTTTTTTTTT
DNA 2: AAAAAAAAAAAAAAAAAAAAAAAAAAAAAAAAAAAAAA
**Q.** Does B5 bind [5]?
**A.** Result: binds
